Data set [1] relates to T1, His6-BldD full length (Streptomyces venezuelae), ORF:0f1775d8.
T1 sequence: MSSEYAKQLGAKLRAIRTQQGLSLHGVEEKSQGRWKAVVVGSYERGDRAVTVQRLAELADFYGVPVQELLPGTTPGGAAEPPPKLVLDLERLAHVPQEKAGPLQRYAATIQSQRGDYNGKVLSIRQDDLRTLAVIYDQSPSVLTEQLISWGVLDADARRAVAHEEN
Put plainly: EMSA. Particulars: EMSA: 10 mM Tris pH 7.5, 1 mM EDTA, 5% glycerol, 10 mM NaCl, 1 mM MgCl2, 0.5 ug poly[d(I-C)] in 20 ul, 20 min room temperature; 5% PAGE in 0.5x TBE.

A further data set deals with T2, BldD (Streptomyces venezuelae, UniProt F2RCL8).
T2 construct: gene SVEN_1089; CTD (residues 80-166), purified from Sf9 cells
T2 sequence (F2RCL8 80-166): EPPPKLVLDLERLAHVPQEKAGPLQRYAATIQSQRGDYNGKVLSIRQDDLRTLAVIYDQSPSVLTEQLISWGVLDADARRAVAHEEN
Briefly: fluorescence polarization. In kind it is binding. A general note: Fluorescence polarisation rises when a labelled molecule tumbles more slowly, as on binding a larger partner.

The target in data set [2] is His6-BldD-DBD (S. venezuelae BldD DNA-binding domain, residues 1-79) (Streptomyces venezuelae). Put plainly: cross-linking; 10 μM protein, 1 mM DSS, no c-di-GMP; 100 mM NaH2PO4, 150 mM NaCl, pH 8, room temperature 30 min; SDS-PAGE, Coomassie.

In general, Kd refers to the free concentration of one partner at which half of the binding sites on the other are occupied at equilibrium, for simple one-to-one binding. For orientation: stoichiometry N means the number of molecules, sites or subunits per partner or assembly.

Regarding “CTAGCCACAGACACCGCGAAAAGGGAAGAAAACCCGCTAAATGGGGCATAGCTTTCGATGAACGACAGAAGGCTCGCGTCGCTCTCCTCTGTACGCGCCCCCTCACGTAGAGTGCCGAAGGGTGCCGTCCGACCCGTAACTCTTTCGAGTGACCGTCG (double strand) [bldM promoter fragment, 158 bp]”, the binding result in data set [1] was “binds”. At BldD, “2′-O-(6-[Fluoresceinyl]aminohexylcarbamoyl)-cyclic diguanosine monophosphate [2′-Fluo-AHC-c-di-GMP]” gave a Kd of 2500 ± 600 nM. Regarding “GTTCGAAGATGTGGCCGACGGCGTCCACCCGGAGCGGCGCTCTCCGCCGACGTTCGCGCACCGCGACCGCGCACTCACGCTACGCTCACCAGGATTCCGTCCAGGACACCCGCACCGACACACCCGACAGCAGAACGGCTCAAGGCAACGC (double strand) [whiG promoter fragment, 151 bp]”, in data set [1], the binding result is listed as “binds”.

“His6-BldD-DBD (S. venezuelae BldD DNA-binding domain, residues 1-79) (domain or fragment)” had a stoichiometry N in data set [2] of 2.
